Data reported in article PMC8326586.

These sequences were tested on T1, AbTetR (TetR class G) (Acinetobacter baumannii AYE), ORF:695ec09f (assay: EMSA).
T1 sequence: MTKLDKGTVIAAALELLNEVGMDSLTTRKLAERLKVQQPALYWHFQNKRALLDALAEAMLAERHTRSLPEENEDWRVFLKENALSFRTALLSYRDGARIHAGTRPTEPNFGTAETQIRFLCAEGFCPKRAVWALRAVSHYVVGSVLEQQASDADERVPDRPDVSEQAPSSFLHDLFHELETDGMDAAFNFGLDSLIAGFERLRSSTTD

With “ATCAACGATAAGGAGATGGACATATAACTTATCGGTGATAAATTGTCAAGCACTGGCGAAGGAACGTGA (double strand) [70 bp tetR-tetA(G) fragment]” as the sequence, how does the binding read?
The binding was “binds”.

“CGAATCAAGCAGGAACCATCCAAGATTGGCATAAAAGGTACATTCAACCTTTTCACTGCATCCCATTGGTGCACGTACTCGGTCTTGCAACTCGGA (double strand) [96 bp non-binding sequence]” was tested. Which binding did it give?
Its binding is “no binding”.

For “CTGAAACTCCAGCGCCGCTCAATGGAGCGACTTTATCAACGATAAGGAGATGGACATATAACTTA (double strand) [65 bp tetR-tetA(G) fragment]”, which binding is on record?
The binding was “binds”.

With “CTGAAACTCCAGCGCCGCTCAATGGAGCGACTTTATCAACGATAAGGAGATGGACATATAACTTATCGGTGATAAATTGTCAAGCACTGGCGAAGGAACGTGA (double strand) [103 bp tetR-tetA(G) fragment]” as the sequence, how does the binding read?
The binding was “binds”.

Which binding does the source give for “CTGAAACTCCAGCGCCGCTCAATGGAGCGACTTTATCAACGATAAGGAGATGGACATATAACTTATCGGTGATAAATTGTCAAGCACTGGCGAAGGAACGTGAATGACCAAACTGGACAAGGGCACCGTGATCGCGGCGGCGCTAGAGCTGTTGAACGAGGTTGGCATGGACAGCCTGACGACGCGGAAGCTCGCTGAACGCCTCAAGGTTCAGCA (double strand) [216 bp tetR-tetA(G) fragment]” here?
The binding was “binds”.

“GCACAAGCTCACGCAGAAGCGTCGGAAGGACGGGCATGATGAGGCCGAGACCCATGGCGTCAAGACCCACGATCAGCAGGGCAATGATGGCAGAGCTGCGCACCTGAAACTCCAGCGCCGCTCAATGGAGCGACTTTATCAACGATAAGGAGATGGACATATAACTTATCGGTGATAAATTGTCAAGCACTGGCGAAGGAACGTGA (double strand) [206 bp tetR-tetA(G) fragment]” was tested. Which binding did it give?
The binding was “binds”.
